Measured values published in US20200199204A1 (UNITED STATES OF AMERICA AS REPRESENTED BY THE SECRETARY …, published 2020).

Legend:
Experiment in all cases: cell-based or functional assay
HIV-1 Env of 0260.v5.c36 = HIV-1 Env of 0260.v5.c36 (HIV-1)
HIV-1 Env of 6535.3 = HIV-1 Env of 6535.3 (HIV-1)
HIV-1 Env of MB539.2B7 = HIV-1 Env of MB539.2B7 (HIV-1)
HIV-1 Env of TRO.11 = HIV-1 Env of TRO.11 (HIV-1)
HIV-1 Env of KER2008.12 = HIV-1 Env of KER2008.12 (HIV-1)
HIV-1 Env of ZM249.1 = HIV-1 Env of ZM249.1 (HIV-1)
HIV-1 Env of RHPA.7 = HIV-1 Env of RHPA.7 (HIV-1)
HIV-1 Env of QH0692.42 = HIV-1 Env of QH0692.42 (HIV-1)
HIV-1 Env of KER2018.11 = HIV-1 Env of KER2018.11 (HIV-1)
HIV-1 Env of CAP244.D3 = HIV-1 Env of CAP244.D3 (HIV-1)
HIV-1 Env of WITO.33 = HIV-1 Env of WITO.33 (HIV-1)
HIV-1 Env of BG505.w6m = HIV-1 Env of BG505.w6m (HIV-1)
HIV-1 Env of THRO.18 = HIV-1 Env of THRO.18 (HIV-1)
HIV-1 Env of PVO.04 = HIV-1 Env of PVO.04 (HIV-1)
HIV-1 Env of ZM135.10a = HIV-1 Env of ZM135.10a (HIV-1)
HIV-1 Env of 3016.V5.c36 = HIV-1 Env of 3016.V5.c36 (HIV-1)
HIV-1 Env of C1080.c3 = HIV-1 Env of C1080.c3 (HIV-1)
HIV-1 Env of ZM109.4 = HIV-1 Env of ZM109.4 (HIV-1)
HIV-1 Env of Q461.e2 = HIV-1 Env of Q461.e2 (HIV-1)
HIV-1 Env of DU156.12 = HIV-1 Env of DU156.12 (HIV-1)
HIV-1 Env of 96ZM651.02 = HIV-1 Env of 96ZM651.02 (HIV-1)
HIV-1 Env of Q769.d22 = HIV-1 Env of Q769.d22 (HIV-1)
HIV-1 Env of ZM197.7 = HIV-1 Env of ZM197.7 (HIV-1)
HIV-1 Env of Q23.17 = HIV-1 Env of Q23.17 (HIV-1)
HIV-1 Env of DU172.17 = HIV-1 Env of DU172.17 (HIV-1)
HIV-1 Env of SC422.8 = HIV-1 Env of SC422.8 (HIV-1)
HIV-1 Env of 6405.v4.c34 = HIV-1 Env of 6405.v4.c34 (HIV-1)
HIV-1 Env of CAP256.SU = HIV-1 Env of CAP256.SU (HIV-1)
HIV-1 Env of CAP256.PI = HIV-1 Env of CAP256.PI (HIV-1)
HIV-1 Env of UG037.8 = HIV-1 Env of UG037.8 (HIV-1)
HIV-1 Env of TH976.17 = HIV-1 Env of TH976.17 (HIV-1)
HIV-1 Env of ZM214.15 = HIV-1 Env of ZM214.15 (HIV-1)
HIV-1 Env of ZM233.6 = HIV-1 Env of ZM233.6 (HIV-1)
HIV-1 Env of REJO.67 = HIV-1 Env of REJO.67 (HIV-1)
HIV-1 Env of DU422.01 = HIV-1 Env of DU422.01 (HIV-1)
HIV-1 Env of Q842.d12 = HIV-1 Env of Q842.d12 (HIV-1)
HIV-1 Env of CAAN.A2 = HIV-1 Env of CAAN.A2 (HIV-1)
HIV-1 Env of RW020.2 = HIV-1 Env of RW020.2 (HIV-1)
HIV-1 Env of CAP45.G3 = HIV-1 Env of CAP45.G3 (HIV-1)
HIV-1 Env of Q168.a2 = HIV-1 Env of Q168.a2 (HIV-1)
HIV-1 Env of ZM53.12 = HIV-1 Env of ZM53.12 (HIV-1)
HIV-1 Env of TRJO.58 = HIV-1 Env of TRJO.58 (HIV-1)
HIV-1 Env of MB201 = HIV-1 Env of MB201 (HIV-1)
HIV-1 Env of AC10.29 = HIV-1 Env of AC10.29 (HIV-1)
HIV-1 Env of CM244.ec1 = HIV-1 Env of CM244.ec1 (HIV-1)
HIV-1 Env of CNE3 = HIV-1 Env of CNE3 (HIV-1)
HIV-1 Env of CAP210.E8 = HIV-1 Env of CAP210.E8 (HIV-1)
HIV-1 Env of Q259.d2.17 = HIV-1 Env of Q259.d2.17 (HIV-1)

B1: CAP256-VRC26.27 (antibody, V domains shown)
VH: QKQLVESGGGVVQPGRSLTLSCAASQFPFSHYGMHWVRQAPGKGLEWVASITNDGTKKYHGESVWDRFRISRDNSKNTLFLQMNSLRAEDTALYFCVRDQREDECEEWWSDYYDFGKELPCRKFRGLGLAGIFDIWGHGTMVIVSS
VL: QSVLTQPPSVSAAPGQKVSISCSGNNSNIGNNFISWFQQFPGTAPKPLIYETYRRHSGIPDRFSGSKSGTSATLAITGLQTGDEADYYCATWGVRQGVGALFGTGTKVTVLG
IC50 (neutralization, TZM-bl) (HIV-1 Env of 0260.v5.c36): 2.1 µg/mL
IC50 (neutralization, TZM-bl) (HIV-1 Env of 6535.3): > 50 µg/mL
IC50 (neutralization, TZM-bl) (HIV-1 Env of MB539.2B7): 1.15 µg/mL
IC50 (neutralization, TZM-bl) (HIV-1 Env of TRO.11): > 50 µg/mL
IC50 (neutralization, TZM-bl) (HIV-1 Env of KER2008.12): 11.3 µg/mL
IC50 (neutralization, TZM-bl) (HIV-1 Env of ZM249.1): 0.004 µg/mL
IC50 (neutralization, TZM-bl) (HIV-1 Env of RHPA.7): > 50 µg/mL
IC50 (neutralization, TZM-bl) (HIV-1 Env of QH0692.42): > 50 µg/mL
IC50 (neutralization, TZM-bl) (HIV-1 Env of KER2018.11): 0.001 µg/mL
IC50 (neutralization, TZM-bl) (HIV-1 Env of CAP244.D3): > 50 µg/mL
IC50 (neutralization, TZM-bl) (HIV-1 Env of WITO.33): > 50 µg/mL
IC50 (neutralization, TZM-bl) (HIV-1 Env of BG505.w6m): 0.102 µg/mL
IC50 (neutralization, TZM-bl) (HIV-1 Env of THRO.18): 1.23 µg/mL
IC50 (neutralization, TZM-bl) (HIV-1 Env of PVO.04): 0.371 µg/mL
IC50 (neutralization, TZM-bl) (HIV-1 Env of ZM135.10a): > 50 µg/mL
IC50 (neutralization, TZM-bl) (HIV-1 Env of 3016.V5.c36): 0.006 µg/mL
IC50 (neutralization, TZM-bl) (HIV-1 Env of C1080.c3): 0.149 µg/mL
IC50 (neutralization, TZM-bl) (HIV-1 Env of ZM109.4): 0.027 µg/mL
IC50 (neutralization, TZM-bl) (HIV-1 Env of Q461.e2): 0.014 µg/mL
IC50 (neutralization, TZM-bl) (HIV-1 Env of DU156.12): 0.006 µg/mL
IC50 (neutralization, TZM-bl) (HIV-1 Env of 96ZM651.02): 0.047 µg/mL
IC50 (neutralization, TZM-bl) (HIV-1 Env of Q769.d22): > 50 µg/mL
IC50 (neutralization, TZM-bl) (HIV-1 Env of ZM197.7): 0.004 µg/mL
IC50 (neutralization, TZM-bl) (HIV-1 Env of Q23.17): > 50 µg/mL
IC50 (neutralization, TZM-bl) (HIV-1 Env of DU172.17): 4.36 µg/mL
IC50 (neutralization, TZM-bl) (HIV-1 Env of SC422.8): 4.86 µg/mL
IC50 (neutralization, TZM-bl) (HIV-1 Env of 6405.v4.c34): > 50 µg/mL
IC50 (neutralization, TZM-bl) (HIV-1 Env of CAP256.SU): < 0.0006 µg/mL
IC50 (neutralization, TZM-bl) (HIV-1 Env of CAP256.PI): > 50 µg/mL
IC50 (neutralization, TZM-bl) (HIV-1 Env of UG037.8): > 50 µg/mL
IC50 (neutralization, TZM-bl) (HIV-1 Env of TH976.17): > 50 µg/mL
IC50 (neutralization, TZM-bl) (HIV-1 Env of ZM214.15): 3.86 µg/mL
IC50 (neutralization, TZM-bl) (HIV-1 Env of ZM233.6): < 0.0006 µg/mL
IC50 (neutralization, TZM-bl) (HIV-1 Env of REJO.67): > 50 µg/mL
IC50 (neutralization, TZM-bl) (HIV-1 Env of DU422.01): 0.015 µg/mL
IC50 (neutralization, TZM-bl) (HIV-1 Env of Q842.d12): 10.6 µg/mL
IC50 (neutralization, TZM-bl) (HIV-1 Env of CAAN.A2): > 50 µg/mL
IC50 (neutralization, TZM-bl) (HIV-1 Env of RW020.2): > 50 µg/mL
IC50 (neutralization, TZM-bl) (HIV-1 Env of CAP45.G3): 0.025 µg/mL
IC50 (neutralization, TZM-bl) (HIV-1 Env of Q168.a2): 0.003 µg/mL
IC50 (neutralization, TZM-bl) (HIV-1 Env of ZM53.12): < 0.0006 µg/mL
IC50 (neutralization, TZM-bl) (HIV-1 Env of TRJO.58): > 50 µg/mL
IC50 (neutralization, TZM-bl) (HIV-1 Env of MB201): > 50 µg/mL
IC50 (neutralization, TZM-bl) (HIV-1 Env of AC10.29): > 50 µg/mL
IC50 (neutralization, TZM-bl) (HIV-1 Env of CM244.ec1): 0.056 µg/mL
IC50 (neutralization, TZM-bl) (HIV-1 Env of CNE3): > 50 µg/mL
IC50 (neutralization, TZM-bl) (HIV-1 Env of CAP210.E8): 0.002 µg/mL
IC50 (neutralization, TZM-bl) (HIV-1 Env of Q259.d2.17): 0.005 µg/mL
